In patent US20020185139A1, “Methods for reducing postoperative intraocular pressure” (priority 2001, published 2002):

Tested on: corneal endothelium
Set-up: species or system rabbits
Conditions: rabbit, in vivo
From the text: In order to investigate the effect of hyaluronidase on the postoperative endothelium, the eyes of the rabbits from Experiment 1 were studied by performing vital staining of the corneal endothelium of the rabbits.

Substance: hyaluronidase
- endothelial damage (vital staining of corneal endothelium): no endothelial damage
